The target in data set [1] is T1, RNA polymerase holoenzyme with sigma A (RNAP-σA) (Mycobacterium smegmatis SM07, UniProt A0QSL8;P60281;A0QS66;A0QWT1;A0QW02 1-350;1-1169;1-1317;1-107;1-466). In words: EMSA. Particulars: protein: native; chain copies: 2;1;1;1;1; label: 5'-32P on one strand; blunt. (In general: In EMSA bound probe runs differently from free probe, usually more slowly.)
The target of data set [2] is T1, RNA polymerase holoenzyme with sigma A …. Put plainly: EMSA; closed complex (KB), on ice 20 min. Particulars: protein: native; chain copies: 2;1;1;1;1; label: 5'-32P on one strand; blunt.

B1: PgyrB1 (dsDNA)
DNA 1: GGTAAAAACGAGGCCGAGCACTCGGCCCTGGCGCCCGATCACGGTACAGTGGTGTGCGACCCCCTGCGGCGACTC
DNA 2: GAGTCGCCGCAGGGGGTCGCACACCACTGTACCGTGATCGGGCGCCAGGGCCGAGTGCTCGGCCTCGTTTTTACC
In the case of B1, in data set [1], the Kd is 68 ± 12.2 x 10^7 M (as printed; exponent implausible, probably nM). The Ka in data set [2] was 2.1 ± 0.03 10^7 M^-1.

Source of the values: article PMC3436766, “Distinct and Contrasting Transcription Initiation Patterns at Mycobacterium tuberculosis Promoters”.
